The DeepSol protein solubility set

Test: soluble on expression in E. coli; label from the status in PepcDB or PDB records

Sequence	soluble on expression in E. coli
MIIDEKRVQEIKNGETSLGIEFGSTRIKAVLIANDFSILASGSFEWETSLENGVWTYSIDEIWKGLQYSYQKLFAEVKEKYGVVLSKIGSIGFSAMMHGYMAFDNKGELLVPFRTWRNTMTEEAAKKLTDLFKFNIPERWSIAHLYQAILRNEPHVEKIDFLTTLAGYIHWQLTGEKVLGIGDASGMFPIDTQTHNYDKNMLETFKNLPEVKKHSLDLEKLLPKVLLAGENAGVLTLEGAKKLDVSGNLQPGIPLCPPEGDAGTGMVATNSVAPRTGNVSAGTSIFAMVVLEKPLNRVHPEIDIVTTPSGDLVAMVHANNGCSDLEAWVNIFQQFTEAINVDMRKDLLYMALYTQAFQGDPDCGGVLAYNYFAGENITGVSEGRPMVVRKAKSNFNLPNFMRAHLFTSLGALKIGMDILLKDEAVKLDKLLGHGGLFKTPIVGQAAVAGAVNAPVSVMETAGEGGAWGIALLASYLRSKENDSTLPEFLSKNVFAGYVAEEVQPDPKDVKGFEEFIERYKKGIAIEQAAVEHLILEHHHHHH	not soluble
MGHHHHHHSHMKTLEAHKDPHKEVVRSAEEAASVLATSISPEQCIKVLCPIIQTADYPINLAAIKMQTKVIERVSKETLNLLLPEIMPGLIQGYDNSESSVRKACVFCLVAVHAVIGDELKPHLSQLTGSKMKLLNLYIKRAQTGSGGADPTTDVSGQS	not soluble
MGKEMASEYELGQVRLGEFQLYTNGEELYRKLFEDINDAEKYIYIHFYIVGKDEISQEFLQLLEKKASSGVEVKLSVDRIGGYKLKKKVISRLKENGVKFTFSKKPKLKNVFYSLHQRNHRRIVTIDGKVSYVGGFNIGKEYLGQNPKFGPWRDYHVRIHGEGAADMERKFAEDWKEDTGEKMPIHESIPTLGNVKYQYLFSNGKGLWEKYGALLKKAKKSLIIATPYFVPSKEMVKELKAALNRGVNVKILVPFKSDAILLKQAAYPYLKDMLHAGAEIYQYRNGFFHGKVTIIDGEIVDIGTANFDNRSFYLNCESNCIIYDKTVVDEVWSRLQVDFHKSKRFSEEDFEKISRWDWFLARIANVLASYL	not soluble
MFPSGHNEKWTRGYQRENSLLHHDDEFRSFQRRTDCPQHFYQQTNGYEHSLFGEKAGFHEASAQNLLMHLASQISPMEFAKLQLELLASQNKQRPHRGAGFGSYLMSPPATVSSSRSTVLCCNPAPPYASHCQSPAASDDFGHHFGSFDSMSAYNFHNNNQQQRREAHVSRDGKSFDQGNIYTAEDVHTVVKNHRNENNQRVVSNKVFVGGISHMMNRKIINKFFGQFGTVFVDWPVKQKPNSRGKSIAIGSYSYLFLVYSDEQSVIKLMSACHRNSQNDFFVSVPGFRDMIQIRPWFIYNGFYILEKARHNRIIDIHRTVFLGGLPRIVTAEEIAQMFSEFGVVLLVTIDIDQDYGYPKGAARVTFERDSAFNRALEKKFLKFDNIDSSKTMIEIKPYVMEDVGCDECGGLWFNPFLSIYDHLKCAKDDHQKEQKMAEIKNFNMWSSRSPFSLNSGDGHDDLITKMDAGFKKNCNLACTYSNRENEKNETEMGARKFLEMVKSFGLEKEKTVTVNGNEYPIGPDLWDKFLPAPKYDVGTEPVRMNPEAKLQQFLRMKRTNVYSNKSAYCKEAPCRQYYCPSCSNKLHSGPNQHTLLPAG	soluble
MIASIFGKITFVGKRKIIVEANCISYWFNVKENHSFEKNLEKPRQVFCQIIKRMVTNQILEEGFA	not soluble
MGSDKIHHHHHHMSVMETTHRQYRQTLIFGLIRIVEELFPQEEIKIQYSILDGIYCELENSPLSPREVAQIEEKLHHWLESKPKIMSCAEEDGFFHTKVNHIFVKSLYPAMHPADTYYPFTLIFYHPGFILLFSNPEHPCELPNFVPPEKLAATFLESQRWVENLHLDKVGSINLNIRKGKTTELISLAEALHEKKISLIADRILEQRRNLRIILISGPSSSGKTTFAQRLSTQLQVNGIRPIALSLDNYFCDREHTPLDEYGQYDFEALEALDLPLLNQHVKALIHGEEIECPIFDFVAGRRQPEGIRMKLEPDEILVMEGIHALNPRLLPSLERSHLFKIYISALFQPNIDTHNRISTTDVRLIRRLVRDDKYRGINPEKTLNQWSSVRRGENNNIFPYQEEADVMFNSSLLYELNALKAYAEPLLISIPKDHPYYATASHLLRVLYHFEILDIAKVPFNSILREFIGGGIY	not soluble
MGSDKIHHHHHHMALRIAFLTVGDPQRRTGGYLYHREVFRCWQARNQPVEEIVLGPADVAGQIAASNRAGQLVEAGRYDVIVVDALARAVVAPWLAHWQRLCPLVTLVHELPTVAGASDPREYEWEQMLLRADALVAVSDDGANTLIARGVEAARIHIASGGCDRLLSRMPVGKAREELVIAVAQWIPRKNLAHLVRVWGQVAEHPWRLELIGESDADPVYAGEVWQAIQHCPANVIVRGVLADDELAERYARASLFALPSRFEGYGLVFAEALACGLPVIAGAVGPVPALVGAGGMLVHPDDEQALSVALRTVMRDAHLRQHLSTAARQRASTLPRWQDTAQHLLCAIEWAYAQRHRVST	not soluble
ISGFYMSIMRDITEKRSMELQLFKSEERFREIFENAMDAIIIWSNDGRIVKANQSACKIFELPMNLLLKRKLCDFLVDSQQKYSITKRKYAKYGEIREELLFQMGNGQFKELEFTSKRTILEN	not soluble
MLFNFREKLNSRKFLVTAEVSPPKGTRFSASLEDASQLKGIADALNVTDNQCSIMHMSSLAFSKLLLDEGHEPIMQLTCRDRNRIGLQSDLLGAYALGIRNICLMTGDYPTCGDHPGSKPVYDVDSVQLIELVRKLDTGVDFAGNKLDGGTSFCAGAVSGIDPEKTMQLIKLQKKVKCGADFIQTQAVYDIGMFEEFMDAVNYLEVPVIAGLIPLKSLGMAEFMNKNISGIHVPEEIMLRMKDASSPMEEGLLIASETIKELTKLSRGIHVMPIGSHRNTARLLSLAGISQ	not soluble
MGSDKIHHHHHHMSLRPYREIARRKSRQIHVGSVAVGGDAPISVQTMTNTLTTDVKGTLEQIRRAADAGADLVRVSCPDEDSTKAFKQIAKESPVPLIADIHFHYKRGIEAAEAGAACLRINPGNIGSHERVREVVKAAKDHGCSMRIGVNAGSLDKHLLDKYGEPCPEALVESALEHAKLLEDNDFFEFKIAVKASDVFLAVAAYQGLAKACDYPLHLGITEAGGLIGGTVKSSIGIGSLLWQGIGDTLRVSLSADVTEEVKVGFEMLKALDLRHRGVRIVSCPSCARQGFDVIKTVETLENRLSHVRAPVTLSILGCVVNGPGEARETMVGITGGGSDNHKVYIGGSPDHNVDGKSMVDHIVELVEARAAEIEAAKAGGK	not soluble
MGSDKIHHHHHHMITCQMIHKTYAAGHGERKVLRGLDFAISRGEHVGFLGRNGAGKTTLIKLLGGVEFPTAGTIRRRMTVSWPLGFGGGFQGSLTGYDNARFIARIYGMSYRDIADFVEDFTELGRQLRAPVKTYSQGMRARLAFALSMAIEFDCYLVDEVILVGDHRFHEKCRLELFGKRSDRALILASHNAALIREHCTRAMVLHDGRGTMHDDIDLALRHYEAL	not soluble
MFARLANPAHFKPLTGSHITRAAKRLYHPKVIDHYTNPRNVGSMDKSLANVGTGIVGAPACGDVIKLQIQVNDKSGIIENVKFKTFGCGSAIASSSYMTELVRGMSLDEAVKIKNTEIAKELSLPPVKLHCSMLAEDAIKAAIKDYKTKRNPSVLH	not soluble
SLDAEKQLANITMGLPLSPAADSARSARHALSLIATARPPAFITTIAKEVHRHTALAANTQSQQSIHTTTLARAKGEILRVIEILIEKMPTDVVDLLVEVMDIIMYCLEGSLVKKKGLQECFPAICRFYMVSYYERSHRIAVGARHGSVALYDIRTGKCQTIHGHKGPITAVSFAPDGRYLATYSNTDSHISFWQMNTSLLGSIGMLNSAPQLRCIKTYQVPPVQPASPGSHNALKLARLIWTSNRNVILMAHDGKEHRFMV	soluble
MTDFSRTFSGTPSAVLPTANRFFRPPLPSAHVARPRLCRRLRDGLDGRLLLIAAPAGFGKSSLAIEFCESLDPRWQSLWLGLSSRESDPGRFLERLLDGLRQYHPTLGEEALGLLKMRQRHQPFAFETWLDDLLDELAPCLDPQRPLLLVLDDYHLAQGAVLDRCLQFLLNHLPEGLVLLVTSRQRPDWHLARLRLSRQLLELSEQDLRLTAEESGALMAASGLELDEDALDALLERSEGWVAGLRLWLLARGDPEEQVSPGVHGADELIRDYLLEEVIERQPPEVQAFLAQTARFERFCAELCDTVREAGDSAAILDHLQQHQVFLVPLDENGQWFRYHHLFSDLLLARPLPDFGPSAGSLHLRACGWFSRHGLLDQAVEQALRAGQPDVAASLVQNLSEEQLLAEQNIATLLRWKMDLPDSLLASTPRLILLYGWALALACQLDAAEELAGQLARFLPAPDESAQRDLLAQWQALSGVIARGRGDIDKAEAHCREALQDLAGERYGTRLQCLSTLSNLAVTRGDFWQA	not soluble
MKYTLDQLNVYNPDGKAKSISIIHGLTISTSNTNSDTTGLTGCLYLTTKNQANDPSFSVYVIKQAQTVSTTQPNSTVVILNTELNPDISNYDQPLKTSYVTNINQSPDSDLFFQWDIPASGWTQKDVTNQFFENPIILETFDWNTMKKNFTRQFFDHIEPLQIGVKYWYFTASKPVSMTMESKYVSNLMYTATSVNTTGLIVNDFVFLEHVVNFPLDLTRVRTIGTLISAFPESSTINFVYKDDQSSSRQSFSTEQTHSLFDTYMQASSLTINATALIPGRFFCQYFGVTGDLLPPGTSTPSTPSTVETTMPSTTRISTTPSAAPHEFQLICFIIAFLLVL	not soluble
MSGINARPTNSIFSNLCQIFSSLQGCLKTQTPFSDGLFSLKSPYRSIRKHRRIIMEVTISAIINGEFADQYGKRGSQFNENGMLI	not soluble
MGSDKIHHHHHHMLANQNVRARVQNHQLFSSLNEAQLAKIFATASLLHIKPEQMLFHQGELASRFYFVLAGTLQLFRTNVQGQMKVIEVVRSGCTFAEALMFNKQTRFPVSAQSVSECALVSFDSETYLQLLKHNPDACIAIMADLSVRIRKHINEVEMVSLQNAQHRLLLFLLRKMTVVGDNQGEITLDIPKRLLASRLSIQPETFSRLIKKMSQTGLIAESHGVIRIPDVALLYASTDISITQPTFNQQGPSSAIPLVCN	not soluble
MGSDKIHHHHHHMSEIQLPSQFESFAEARKQGFIAVKNLKEQGKKVAGVFCTYAPVELVLAAGAVPVGLCAFSDETIPEAEKVLPRNLCPLVKSSYGFAITDKCPYMFFSDLMIGETTCDGKKKMYELLGEFKNLHVMQLPQTAAAEASQELWYQEVLRLKDRIEQDFGVTITEEGIKNAIKVKNEERKLLKEFYELSKSCPPPITGAEQLKVLYGSQFKFDPEAKNREIRETIDKVKADQAKGVENVSPAAKRILITGCPLAGVTEKVVRAIEESGGVVVAYENCIGVKPVERLVDETIDPYKALADRYLQIGCSVMTPNPNRLDLLSRLVREFKVDGVVEMTLQACHTYNLETTQIRKHMQKEDMPFISVETDYSTSDAAQLKTRLAAFIEMLS	not soluble
PRVSLFFFSADTDDHAWDKHALVLECAELADSLGLDAIWVPERHFDPFGAPYPSPGLLLAAIAARTSRIALRSGSVVLPLRDPLLVAEEWGVLDSLSRGRMGISLASGWHADDFVLNPEGYERRKDVLEERLADLHTLWNGASITRKGPGGRPVEVRTYPRPERTPEVWLTSSRNPDTWRTAGRLNLHVLTALLEQTIDEITERVGLYHQALTEAGHPTDGRQVTCMLHTHLASDPASVEQRVRGPLIRYLSAHMDLFSKYAAGGGAGIDPDEVTEADRQALLEHGLRRYMGTSGLFGSAESCLPKVERLGAAGITELGCLVDFGLPREQVLESVEELGRLRVALRETAGAPK	soluble
MPISEDLKQAIRQRARYICEYCHSPERLSANRFTIDHVIPKSLGGSDAFNNLALACRRCNERRYNFVASIDPQTKTIVAIFNPRQQNWAEHFIWTNRGIIIQGTTTTGRATCIRLDLNDTRYPEEDSIQETRRFWLKTGLHPPIDDPCKNLEHHHHHH	soluble
